The text below walks through data of patent publication US20200095340A1.

For the experiment, the target named is biotinylated human DLL3 protein expressed as a human IgG1 fusion protein (human) (UniProt Q9NYJ7). Description: Octet BLI; biotinylated huDLL3-IgG1 fusion on streptavidin tips; single 50 nM; conditioned medium. In general terms: BLI is a label-free optical method that tracks binding on a fibre tip over time.
Sequence of biotinylated human DLL3 protein expressed as a human IgG1 fusion protein (human) (Q9NYJ7 other isoform, or with tags, fused parts or gaps): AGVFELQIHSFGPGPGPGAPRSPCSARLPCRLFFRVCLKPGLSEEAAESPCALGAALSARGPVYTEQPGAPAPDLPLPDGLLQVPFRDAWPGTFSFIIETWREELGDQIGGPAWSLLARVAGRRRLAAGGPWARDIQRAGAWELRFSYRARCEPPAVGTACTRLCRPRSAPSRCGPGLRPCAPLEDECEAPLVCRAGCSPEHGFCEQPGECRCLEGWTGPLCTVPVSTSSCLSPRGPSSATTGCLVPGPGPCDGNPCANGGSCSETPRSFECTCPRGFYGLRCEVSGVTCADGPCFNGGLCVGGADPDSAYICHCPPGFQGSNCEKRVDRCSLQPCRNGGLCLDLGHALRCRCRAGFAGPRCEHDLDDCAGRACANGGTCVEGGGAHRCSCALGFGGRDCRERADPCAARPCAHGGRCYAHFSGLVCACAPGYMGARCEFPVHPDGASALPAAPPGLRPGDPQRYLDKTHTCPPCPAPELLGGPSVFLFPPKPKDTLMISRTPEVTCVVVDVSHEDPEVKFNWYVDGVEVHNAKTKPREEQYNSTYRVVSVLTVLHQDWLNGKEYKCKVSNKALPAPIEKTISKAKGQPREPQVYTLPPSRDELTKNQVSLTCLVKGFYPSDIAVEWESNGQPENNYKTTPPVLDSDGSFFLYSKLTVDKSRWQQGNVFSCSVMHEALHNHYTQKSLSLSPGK

B1: anti-DLL3 trispecific protein 3H06 (protein, part only; not given: anti-CD3 and anti-albumin domains, part only)
chain, part: EVQLVESGGGLVQPGGSLTLSCAASGSSVSQLSMAWYRQAPGKKRELVAGISADGSTDYFDSVKGRFTISRDNAKNSVYLQMNSLRAEDTAVYYCYAYRWTTRGTYWGQGTLVTVSSGGGGSGGGSGGGGSGGGSHHHHHH
As usually defined, the Kd is the free concentration of one partner at which half of the binding sites on the other are occupied at equilibrium, for simple one-to-one binding. Read a low Kd as higher affinity. Molecule B1 returned a dissociation constant (Kd) of 8 nM.

B2: anti-DLL3 trispecific protein 3C05 (protein, part only; not given: anti-CD3 and anti-albumin domains, part only)
chain, part: EVQLVESGGGLVQPGGSLTLSCVASGTSVSFLSMAWYRQAPGKKRELVAGISADGSTTYIDSVKGRFTISRDNAKNSVYLQMNSLRAEDTAVYYCYAYRWTTRRTYWGQGTLVTVSSGGGGSGGGSGGGGSGGGSHHHHHH
As to B2, the equilibrium dissociation constant (Kd) stood at 8.2 nM.

B3: anti-DLL3 trispecific protein 4D04 (protein, part only; not given: anti-CD3 fragment and anti-albumin sdAb, part only)
chain, part: EVQLVESGGGLVQPGGSLTLSCAASGSSVSFLSIAWYRQAPGKKRELVAGISKDGSTDYIDSVKGRFTISRDNAKNSVYLQMNSLRAEDTAVYYCYAYRWTTRMTYWGQGTLVTVSSGGGGSGGGSGGGGSGGGSHHHHHH
In turn, B3 showed a dissociation constant (Kd) of 8.6 nM.

B4: anti-DLL3 trispecific protein 4F011 (protein, part only; not given: anti-CD3 and anti-albumin domains, part only)
chain, part: EVQLVESGGGLVQPGGSLTLSCAASGSKVSFLSMAWYRQAPGKKRELVAGISADGSKDYIDSVKGRFTISRDNAKNSVYLQMNSLRAEDTAVYYCYAYRWTTRYTYWGQGTLVTVSSGGGGSGGGSGGGGSGGGSHHHHHH
As to B4, the Kd is 8.2 nM.

B5: anti-DLL3 trispecific protein 4C05 (protein, part only; not given: anti-CD3 and anti-albumin domains, part only)
chain, part: EVQLVESGGGLVQPGGSLTLSCAASGSSVSNLSMAWYRQAPGKKRELVAGISADGSTAYIDSVKGRFTISRDNAKNSVYLQMNSLRAEDTAVYYCYAYRWTTRRTYWGQGTLVTVSSGGGGSGGGSGGGGSGGGSHHHHHH
In turn, B5 yielded a Kd of 8.3 nM.

B6: anti-DLL3 trispecific protein 4F09 (protein, part only; not given: anti-CD3 and anti-albumin domains, part only)
chain, part: EVQLVESGGGLVQPGGSLTLSCAASGSRVSFLSMAWYRQAPGKKRELVAGISADGSTDYIESVKGRFTISRDNAKNSVYLQMNSLRAEDTAVYYCYAYRWTTRYTYWGQGTLVTVSSGGGGSGGGSGGGGSGGGSHHHHHH
As for B6, the dissociation constant (Kd) is 8.8 nM.

B7: anti-DLL3 trispecific protein 3A02 (protein, part only; not given: CD3 fragment and albumin sdAb, part only)
chain, part: EVQLVESGGGLVQPGGSLTLSCAASGSSVSFLSLAWYRQAPGKKRELVAGISADGSTAYIDSVKGRFTISRDNAKNSVYLQMNSLRAEDTAVYYCYAYRWRTRYTYWGQGTLVTVSSGGGGSGGGSGGGGSGGGSHHHHHH
For B7, the dissociation constant Kd was 8.1 nM.

B8: anti-DLL3 trispecific protein 3H010 (protein, part only; not given: anti-CD3 and anti-albumin domains, part only)
chain, part: EVQLVESGGGLVQPGGSLTLSCAASGSSVSFLSMAWYRQAPGKKRELVAGISADGSTAYIDSVKGRFTISRDNAKNSVYLQMNSLRAEDTAVYYCYAYRWTTRRTYWGQGTLVTVSSGGGGSGGGSGGGGSGGGSHHHHHH
With B8, the Kd stood at 8.6 nM.

B9: anti-DLL3 trispecific protein 1B05 (protein, part only; not given: CD3 binder and albumin binder, part only)
chain, part: EVQLVESGGGLVQPGGSLTLSCVASGSTSSINAMAWYRRAPGKQRELVAGISSDGSKVYADSVKGRFTISRDNAKNSVYLQMNSLRAEDTAVYYCYYYRTVSGSSMRYWGQGTLVTVSSGGGGSGGGSGGGGSGGGSHHHHHH
Regarding B9, the Kd turned out to be 8 nM.

B10: anti-DLL3 trispecific protein 1A07 (protein, part only; not given: anti-CD3 fragment and anti-albumin domain, part only)
chain, part: EVQLVESGGGLVQPGGSLTLSCVASGSISSINAMGWYRRAPGKQRELVAGISSDGSKVYADSVKGRFTISRDNAKNSVYLQMNSLRAEDTAVYYCYYFRMVSGSSMRYWGQGTLVTVSSGGGGSGGGSGGGGSGGGSHHHHHH
For the molecule B10, the dissociation constant (Kd) was determined as 8.6 nM.

B11: anti-DLL3 trispecific protein 1C04 (protein, part only; not given: anti-CD3 fragment and anti-albumin sdAb, part only)
chain, part: EVQLVESGGGLVQPGGSLTLSCVASGNTSSINAMAWYRRAPGKQRELVAGISSDGSKVYADSVKGRFTISRDNAKNSVYLQMNSLRAEDTAVYYCYYFRTVSGSSMRYWGQGTLVTVSSGGGGSGGGSGGGGSGGGSHHHHHH
As to B11, the Kd worked out at 8.1 nM.

B12: anti-DLL3 trispecific protein 2D05 (protein, part only; not given: anti-CD3 fragment and anti-albumin domain, part only)
chain, part: EVQLVESGGGLVQPGGSLTLSCVASGSTSRINAMGWYRRAPGKQRELVAGISSDGSKVYADSVKGRFTISRDNAKNSVYLQMNSLRAEDTAVYYCYYFRTASGSSMRYWGQGTLVTVSSGGGGSGGGSGGGGSGGGSHHHHHH
In turn, B12 had a Kd of 8.3 nM.

B13: anti-DLL3 trispecific protein 1H010 (protein, part only; not given: anti-CD3 fragment and anti-albumin sdAb, part only)
chain, part: EVQLVESGGGLVQPGGSLTLSCVASGSTRSINAMGWYRRAPGKQRELVAGISSDGSKVYNDSVKGRFTISRDNAKNSVYLQMNSLRAEDTAVYYCYYFRTVSGSSMRFWGQGTLVTVSSGGGGSGGGSGGGGSGGGSHHHHHH
The molecule B13 had a Kd of 8.4 nM.

B14: anti-DLL3 trispecific protein 2A03 (protein, part only; not given: CD3 fragment and albumin sdAb, part only)
chain, part: EVQLVESGGGLVQPGGSLTLSCVASGTTSSINAMGWYRRAPGKQRELVAGISSDGSKVYGDSVKGRFTISRDNAKNSVYLQMNSLRAEDTAVYYCYYFRTVSGSAMRYWGQGTLVTVSSGGGGSGGGSGGGGSGGGSHHHHHH
The molecule B14 showed a Kd of 8.2 nM.

B15: anti-DLL3 trispecific protein 1C012 (protein, part only; not given: anti-CD3 and anti-albumin domains, part only)
chain, part: EVQLVESGGGLVQPGGSLTLSCVASGITSSINAMGWYRRAPGKQRELVAGISSDGSKVYAGSVKGRFTISRDNAKNSVYLQMNSLRAEDTAVYYCYYFRTVRGSSMRYWGQGTLVTVSSGGGGSGGGSGGGGSGGGSHHHHHH
On to B15, for which the dissociation constant (Kd) is 8.5 nM.

B16: anti-DLL3 trispecific protein 1B03 (protein, part only; not given: anti-CD3 and anti-albumin domains, part only)
chain, part: EVQLVESGGGLVQPGGSLTLSCVASGKTSSINAMAWYRRAPGKQRELVAGISSDGSKVYTDSVKGRFTISRDNAKNSVYLQMNSLRAEDTAVYYCYYFRTVSGSSARYWGQGTLVTVSSGGGGSGGGSGGGGSGGGSHHHHHH
B16 displayed a dissociation constant Kd of 8.7 nM.

B17: anti-DLL3 trispecific protein 1G07 (protein, part only; not given: anti-CD3 and anti-albumin domains, part only)
chain, part: EVQLVESGGGLVQPGGSLTLSCVASGSTSSINAMGWYRRAPGKQRELVAGISSDGSKVVADSVKGRFTISRDNAKNSVYLQMNSLRAEDTAVYYCYYFRTYSGSSMRYWGQGTLVTVSSGGGGSGGGSGGGGSGGGSHHHHHH
Take B17: the Kd was determined as 8.3 nM.

B18: anti-DLL3 trispecific protein 1C06 (protein, part only; not given: anti-CD3 and anti-albumin domains, part only)
chain, part: EVQLVESGGGLVQPGGSLTLSCVASGSTSIINAMGWYRRAPGKQRELVAGISSDGSKVYEDSVKGRFTISRDNAKNSVYLQMNSLRAEDTAVYYCYYFRAVSGSSMRYWGQGTLVTVSSGGGGSGGGSGGGGSGGGSHHHHHH
For B18, the Kd came to 8.3 nM.

B19: anti-DLL3 trispecific protein 2E09 (protein, part only; not given: anti-CD3 and anti-albumin domains, part only)
chain, part: EVQLVESGGGLVQPGGSLTLSCVASGSVSSINAMGWYRRAPGKQRELVAGISSDGSKVYASSAKGRFTISRDNAKNSVYLQMNSLRAEDTAVYYCYYFRTLSGSSMRYWGQGTLVTVSSGGGGSGGGSGGGGSGGGSHHHHHH
As to B19, the equilibrium dissociation constant (Kd) is 8.5 nM.

B20: anti-DLL3 trispecific protein 2A01 (protein, part only; not given: anti-CD3 fragment and anti-albumin sdAb, part only)
chain, part: EVQLVESGGGLVQPGGSLTLSCVASGSTSSINAMGWYRRAPGKQRELVAGISSDGSKVVADSVKGRFTISRDNAKNSVYLQMNSLRAEDTAVYYCYYFRTLSGSSMRYWGQGTLVTVSSGGGGSGGGSGGGGSGGGSHHHHHH
On to B20, for which the Kd stood at 8 nM.

B21: anti-DLL3 trispecific protein 1E04 (protein, part only; not given: anti-CD3 fragment and anti-albumin sdAb, part only)
chain, part: EVQLVESGGGLVQPGGSLTLSCVASGSTSRINGMGWYRRAPGKQRELPAGISSDGSKAYADSVKGRFTISRDNAKNSVYLQMNSLRAEDTAVYYCYYFRTASGTSMRYWGQGTLVTVSSGGGGSGGGSGGGGSGGGSHHHHHH
The molecule B21 gave a Kd of 8.1 nM.
